# Measurements as given in the supplement of paper PMC11865577.
# Legend:
# Assay in all cases: pull-down binding Z-score (relative to library population); higher = stronger binding
# [1] = tested on: G-clamp-N3 (biotin conjugate); details: RNA library: Library-1 (pre-miRNA loops + repeats)
# Procedure, shortened: (§1)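 An RNA library (1 μg) carrying a Cy5 or Cy3 end label was heat-folded in phosphate/NaCl/KCl buffer, then incubated for 60 min at 25 °C with streptavidin beads loaded with 100 pmol of biotin-conjugated small molecule. The beads were washed three times, and bound RNA was released in hot SDS and hybridised to a DNA barcode microarray for 20 h at 55.5 °C. Each binding score was derived by subtracting the signal from beads without compound, averaging the barcoded replicate probes after removing the highest and lowest, and expressing the result as a Z-score relative to the library mean and standard deviation.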
# [2] = tested on: TO-3-N3 (biotin conjugate); details: RNA library: Library-2
# Procedure, shortened: as §1
# [3] = tested on: TO-3-N3-2 (biotin conjugate); details: RNA library: Library-2
# Procedure, shortened: as §1
# [4] = tested on: TO-N3 (biotin conjugate); details: RNA library: Library-2
# Procedure, shortened: as §1
# [5] = tested on: TO-N3-2 (biotin conjugate); details: RNA library: Library-2
# Procedure, shortened: as §1
Sequence,pull-down binding Z-score [1],pull-down binding Z-score [2],pull-down binding Z-score [3],pull-down binding Z-score [4],pull-down binding Z-score [5]
UGGCAAAGACAUAGAUUGUUUAGCUACCCCUUUGCCA [hsa-mir-3119-2],0.167,-0.516,-0.495,-0.809,-0.58
UGGCAAAGGGGUAGCUAAACAAUCUAUGUCUUUGCCA [hsa-mir-3119-1],1.24,-0.367,0.00332,-0.525,-0.555
UGGCAAUUCAGUAAAAAUGCUCA [hsa-mir-6715b],-0.751,-0.296,-0.14,-0.281,0.143
UGGCACAGAUCCAAUACCUUCUGUCCCC [hsa-mir-6810],-0.424,0.0686,-0.361,-0.118,0.171
UGGCCAUUUCCUACCA [hsa-mir-617],-1.33,-0.72,-0.393,-0.908,-0.383
UGGCCUGGCAGUGCGUCGGAAGAACAGGGCGGGUGGGGCC [hsa-mir-4792],2.84,4,3.11,3.93,3.57
UGGCGACACUCGCGCCAGCUCCCGGGACGGCUGGGCUCGGGCUGGUCGCCGA [hsa-mir-7845],3.14,0.0309,-0.167,0.341,1.38
UGGCGGCGGCGAGGACACCGCCGCU [hsa-mir-4469],0.412,1.53,0.747,1.4,0.629
UGGCUGCUUGGGUCAAGUCAGCAGCCA [hsa-mir-449b],1.35,-0.201,-0.474,-0.272,-0.648
UGGCUGUAGGGCAGCAGUCA [hsa-mir-8079],0.959,1.29,0.456,1.16,0.479
UGGCUUCUGCCUCUUUCUUUGUGGAAGCCA [hsa-mir-4269],1.04,0.255,-0.369,-0.118,-1.13
UGGCUUGCACCGUGACUCCCUCUCACCAAGCAAGUGUC [hsa-mir-4440],-0.837,-0.387,0.0231,0.0846,0.607
UGGGAGGUAAGAGCUCUUCACCCUUCA [hsa-mir-197],-0.817,-0.46,-0.132,-0.119,0.638
UGGGAGUGAUCCCAACAGCUGAGCUCCCU [hsa-mir-7106],0.114,0.772,-0.0877,0.756,0.529
UGGGCAGUUCUUCUGCUGG [hsa-mir-1587],0.403,0.21,0.0756,0.149,0.377
UGGGCCAAG [hsa-mir-3620],-0.636,0.746,0.193,0.825,0.487

Sequence,pull-down binding Z-score [1],pull-down binding Z-score [2],pull-down binding Z-score [3],pull-down binding Z-score [4],pull-down binding Z-score [5]
UGGGCUCCCCUAGACUAGGACUCCA [hsa-mir-1825],0.254,-0.367,-0.507,-0.37,0.508
UGGGUAGAAAGUAUUAUUCUAUUCA [hsa-mir-664b],-0.0123,0.0201,-0.0975,-0.28,-0.83
UGGGUAGGAAUAUCCUGGAUCCCCU [hsa-mir-3189],-0.575,-0.0266,0.312,0.102,0.501
UGGGUCAAGGAGCCCA [hsa-mir-4530],0.476,-0.163,-0.211,-0.3,-0.3
UGGGUGGAUCCUCUAUUUCCUUACGUGGGCCACUGG [hsa-mir-432],0.632,0.45,-0.013,0.729,0.845
UGGGUUAAGCCGAGCUGG [hsa-mir-4507],1.25,0.478,0.297,0.872,1.05
UGGGUUGAACUGUGUGGACAAGCUCA [hsa-mir-181b-1],-0.166,-0.111,-0.042,0.366,0.631
UGGGUUGUGUCAGUGUCAGACCUC [hsa-mir-146a],-0.421,-0.496,-0.00346,0.187,0.838
UGGGUUUGAGUCUGAAUCAACUCA [hsa-mir-181b-2],-0.649,-0.728,-0.254,-0.805,-0.572
UGGUAUCCUGACCG [hsa-mir-1973],-0.747,0.627,-0.269,0.408,0.287
UGGUCAGAUAUCCCAU [hsa-mir-8060],-1.4,-0.323,-0.195,-0.262,-0.0919
UGGUCAGGCGGCU [hsa-mir-3917],0.0721,-0.142,-0.061,0.0412,0.442
UGGUGCAAUAAUUGG [hsa-mir-1302-7],1.95,0.418,0.492,0.4,0.245
UGGUGGAGAUGGAGAGCCCUGAGCCUCCA [hsa-mir-6777],0.173,0.164,-0.0154,0.727,1.17
UGGUGGGAGAGGAGCCCCACUGUGGAAGUCUGACCCCCACA [hsa-mir-6785],-0.814,1.05,1.01,1.64,1.86
UGGUGGGGGCCGGGGCAGGCCCAGCGAAA [hsa-mir-648],1.1,1.96,1.37,2.27,1.94
